The record followed here is a protein production outcome set (Wang et al. 2014).
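Note: failed if final PepcDB status was selected cloned or expressed and not failed if soluble or beyond.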

This data set in a line: label from the status in PepcDB records.
Consider “MTLSIAHLGPPGTYAEQAAVLYVNWLTKSTGDEATLSPYPTISQSLHAVADGQAHLAVVPVENSIEGSVTTTLDALWQLDSLRIQLALVLPIVHTLISCASGLDKIETVYSHPQALAQCQGWLERFLPTVQIVPSNSTTEALQRLEQETTTAAIASSRAAQLYNLPILATGINDYPENCTRFWVVSQGEADAGYQTSKVPTSHTSLAFSMPANTPGALVKPLQIFAQLGINLSRIESRPTKRSLGEYLFFMDLEADVKESQMQSALAELTIHTEILKILGAYNVLPIGAFT”, for which the protein production result is “failed”.

For “WIAQIHKTKTNYFLNLLKEGKIPLRPGIKRLLDELRKNNIKIAIATTTTYENVSTLLQCTLGDSALEWFDVIGAGDIVSKKKPAPDIYEWVLNQLNLPAEACIAIEDSENGLKSATAAGIKTIITISEYTREQNFSYAALVLEDLESTDHTHQIAAQSFDKPLSVQTLSDLLN”, the protein production entry is listed as “failed”.

“MSTETIEIFNNSDEWANQLKHALSKGENLALLHGLTPDILDRIYAYAFDYHEKGNITDAEIYYKFLCIYAFENHEYLKDFASVCQPKKKYQQAYDLYKLSYNYFPYDDYSVIYRMGQCQIGAKNIDNAMQCFYHIINNCEDDSVKSKAQAYIELLNDNSEDNGLEHHHHHH”: the protein production result is “failed”.

As to “MTWLFCDRIATKIDKNNGISMITHNFNTLDLLTSPVWIVSPFEEQLIYANSAARLLMQDLTFSQLRTGPYSVSSQKELPKYLSDLQNQHDIIEILTVQRKEEETALSCRLVLRKLTEAEPVIIFEGIEAPATLGLKASRSANYQRKKQGFYARFFLTNSAPMLLIDPSRDGQIVDANLAALNFYGYNHETMCQKHTWEINMLGRRVMPIMHEISHLPGGHKPLNFVHKLADGSTRHVQTYAGPIEIYGDKLMLCIVHDITEQKRLEEQLEHAAHHDAMTGLLNRRQFYHITEPGQMQHLAIAQDYSLLLIDTDRFKHINDLYGHSKGDEVLCALARTLESCARKGDLVFRWGGEEFVLLLPRTPLDTALSLAETIRVSVAKVSISSLPRFTVSIGVAHHEGNESIDELFKRVDDALYRAKNDGRNRVLAA”, the protein production result was “failed”.

As to “MKIKAISIDIDGTITYPNRMIHEKALEAIRRAESLGIPIMLVTGNTVQFAEAASILIGTSGPVVAEDGGAISYKKKRIFLASMDEEWILWNEIRKRFPNARTSYTMPDRRAGLVIMRETINVETVREIINELNLNLVAVDSGFAIHVKKPWINKGSGIEKASEFLGIKPKEVAHVGDGENDLDAFKVVGYKVAVAQAPKILKENADYVTKKEYGEGGAEAIYHILEKFGYL”, the protein production entry is on record as “not failed”.
